Data from the supplement of paper PMC7877785.
± gives the uncertainty stated by the source.

Assay: self-splicing fitness, log relative to wild type (ln ratio); higher = more splicing; Tetrahymena group I intron in knt gene, E. coli kanamycin selection, DiMSum; sequences stand for … in CUCUCU…GGAGGGAAAAGUUAUCAGGCAUGCACCUGGUAGCUAGUCUUUAAACCAAUAGAUUGCAUCGGUUUAAAAGGCAAGACCGUCAAAUUGCGGGAAAGGGGUCAACAGCCGUUCAGUACCAAGUCUCAGGGGAAACUUUGAGAUGGCCUUGCAAAGGGUAUGGUAAUAAGCUGACGGACAUGGUCCUAACCACGCAGCCAAGUCCUAAGUCAACAGAUCUUCUGUUGAUAUGGAUGCAGUUCACAGACUAAAUGUCGGUCGGGGAAGAUGUAUUCUUCUCAUAAGAUAUAGUCGGACCUCUCCUUAAUGGGAGCUAGCGGAUGAAGUGAUGCAACACUGGAGCCGCUGGGAACUAAUUUGUAUGCGAAAGUAUAUUGAUUAGUUUUGGAGUACUCGUGGUCG
In short: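 Six replicate transformations of E. coli BL21(DE3) with a pET-22b(+) library were grown overnight at 37°C or 30°C. The library randomised all eight P1ex-region intron nucleotides, the intron lying in the knt kanamycin-resistance gene, and plates were LB agar with or without 25 μg/mL kanamycin plus 100 μg/mL carbenicillin, 50 μM IPTG and 0.2% rhamnose. Pooled colonies were amplicon-sequenced on an Illumina HiSeq 2500, and fitness is the DiMSum error-weighted combination of wild-type-normalised replicate fold changes, kanamycin versus none.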

Sequence	self-splicing fitness (ln) (30 °C)	self-splicing fitness (ln) (37 °C)
GAUUAGCAAUAUUACGGCUU	-0.0112 ± 0.094	-0.0247 ± 0.11
UACUAGCAAUAUUACGCCUC	-2.28 ± 0.24	-1.78 ± 0.28
CUGAAGCAAUAUUACGUGAC	-1.24 ± 0.086	-0.353 ± 0.1
UCCCAGCAAUAUUACGUGCU	-3.59 ± 0.2	-2.92 ± 0.19
CUGGAGCAAUAUUACGGCAA	-2.52 ± 0.25	-2.75 ± 0.3
GGGGAGCAAUAUUACGAUCA	-1.45 ± 0.18	-0.807 ± 0.19
ACUUAGCAAUAUUACGCUGC	-3.82 ± 0.32	-2.36 ± 0.22
UCAAAGCAAUAUUACGGAUU	-3.73 ± 0.24	-2.26 ± 0.21
CUAGAGCAAUAUUACGCUUG	-3.03 ± 0.21	-1.83 ± 0.23
GGCGAGCAAUAUUACGACAC	-1.12 ± 0.19	-0.253 ± 0.26
CUGUAGCAAUAUUACGUGGC		0.0373 ± 0.2
GAAGAGCAAUAUUACGUCCA	-3.13 ± 0.4	
GUACAGCAAUAUUACGCCUG	-2.24 ± 0.25	-0.634 ± 0.19
ACAGAGCAAUAUUACGAUCC	-3.76 ± 0.39	-1.5 ± 0.34
AAACAGCAAUAUUACGUUUC	-3.8 ± 0.1	-2.73 ± 0.11
UUCAAGCAAUAUUACGCUCG	-3.13 ± 0.33	-2.15 ± 0.2
ACAUAGCAAUAUUACGUGGG	-3.52 ± 0.12	-2.75 ± 0.12
UGUCAGCAAUAUUACGAGUU	-1.33 ± 0.14	-1.44 ± 0.2
UCGCAGCAAUAUUACGAAGA	-2.23 ± 0.13	-1.43 ± 0.15
UUCAAGCAAUAUUACGGUGC	-2.77 ± 0.42	-0.868 ± 0.3
AAGGAGCAAUAUUACGUGCG	-2.36 ± 0.19	-2.09 ± 0.23
CGAGAGCAAUAUUACGCAAU	-2.58 ± 0.36	
ACCUAGCAAUAUUACGUGGC	-3.35 ± 0.21	-2.02 ± 0.21
AUAAAGCAAUAUUACGCGGC	-2.79 ± 0.21	-0.109 ± 0.19
AGACAGCAAUAUUACGUCAU	-2.86 ± 0.13	-2.17 ± 0.15

Sequence	self-splicing fitness (ln) (30 °C)	self-splicing fitness (ln) (37 °C)
CACGAGCAAUAUUACGUGGC	-4.09 ± 0.37	-2.13 ± 0.21
CCCCAGCAAUAUUACGCGAA	-4.21 ± 0.15	-1.69 ± 0.14
GUGUAGCAAUAUUACGCUGA	-1.22 ± 0.18	-1.58 ± 0.17
CGGCAGCAAUAUUACGAAAU	-3.82 ± 0.33	-2.76 ± 0.33
AGGAAGCAAUAUUACGGCUA	-0.35 ± 0.11	0.0571 ± 0.15
UGUAAGCAAUAUUACGUUAG	-1.56 ± 0.14	-0.556 ± 0.17
ACGAAGCAAUAUUACGCUCU	-1.35 ± 0.094	-0.15 ± 0.1
GCUUAGCAAUAUUACGGGGA	-1.05 ± 0.11	-0.712 ± 0.12
CCGUAGCAAUAUUACGCAGA	-2.96 ± 0.25	-2.74 ± 0.24
CAUGAGCAAUAUUACGUACU	-3.25 ± 0.18	-2.59 ± 0.18
UUAUAGCAAUAUUACGGAGU	-3.38 ± 0.32	-2.15 ± 0.3
AUCAAGCAAUAUUACGAGCA	-1.3 ± 0.075	-0.375 ± 0.076
CUACAGCAAUAUUACGAGUU	-4.98 ± 0.2	-2.76 ± 0.17
AGUGAGCAAUAUUACGCCGA	-1.82 ± 0.31	-2.36 ± 0.4
UAGGAGCAAUAUUACGAUGG	-3.36 ± 0.28	-1.4 ± 0.24
AGCUAGCAAUAUUACGGCCA	-0.689 ± 0.15	0.469 ± 0.18
CUGCAGCAAUAUUACGGGUG	-0.771 ± 0.049	-0.0809 ± 0.058
CUGAAGCAAUAUUACGGCGA	-3.53 ± 0.27	
GUCAAGCAAUAUUACGUCAU	-2.22 ± 0.075	-1.16 ± 0.064
GCCGAGCAAUAUUACGUUAU	-2.06 ± 0.098	-2.43 ± 0.18
GCCCAGCAAUAUUACGUAAU	-0.747 ± 0.06	-0.32 ± 0.067
UUGAAGCAAUAUUACGACGG	0.0862 ± 0.13	0.756 ± 0.17
GACCAGCAAUAUUACGAGUC	-3.82 ± 0.23	-2.06 ± 0.18
AGAUAGCAAUAUUACGCGCC	-0.504 ± 0.15	-0.626 ± 0.27
UGUCAGCAAUAUUACGUGGA	-1.92 ± 0.1	-0.49 ± 0.11

Sequence	self-splicing fitness (ln) (30 °C)	self-splicing fitness (ln) (37 °C)
CUUGAGCAAUAUUACGAGCA	-2.65 ± 0.41	-3.07 ± 0.33
AACAAGCAAUAUUACGUCCG	-1.26 ± 0.067	-0.444 ± 0.085
CCAGAGCAAUAUUACGAAGU	-4.41 ± 0.46	-2.8 ± 0.34
UAAAAGCAAUAUUACGAUAA	-0.739 ± 0.077	-0.348 ± 0.1
AUGGAGCAAUAUUACGCAGG	-3.69 ± 0.26	-2.89 ± 0.4
UGUUAGCAAUAUUACGCUUC		-1.5 ± 0.48
CUGGAGCAAUAUUACGUCGA	-3.15 ± 0.29	-2.82 ± 0.34
GUUCAGCAAUAUUACGAUAC	-0.948 ± 0.078	-0.47 ± 0.13
CGUAAGCAAUAUUACGUCAG	-1.56 ± 0.11	0.0936 ± 0.11
AGAUAGCAAUAUUACGUAGU	-2.61 ± 0.11	-2.46 ± 0.15
CGGAAGCAAUAUUACGGUAU	-4.04 ± 0.16	-1.95 ± 0.098
UUUCAGCAAUAUUACGACGU	-1.71 ± 0.17	-0.698 ± 0.18
UUGCAGCAAUAUUACGCAGA	-2.12 ± 0.11	-1.95 ± 0.096
CCUGAGCAAUAUUACGAGCA	-3.49 ± 0.27	-3.47 ± 0.3
UUUAAGCAAUAUUACGUCAU	-3.03 ± 0.22	-1.08 ± 0.15
UCGGAGCAAUAUUACGAUGA	-0.946 ± 0.15	-1.11 ± 0.16
UGUCAGCAAUAUUACGUUCU	-1.16 ± 0.071	-0.142 ± 0.073
GAACAGCAAUAUUACGUGUG	-1.35 ± 0.054	-0.967 ± 0.069
AAGCAGCAAUAUUACGAGAU	-3.14 ± 0.17	-1.61 ± 0.14
ACUCAGCAAUAUUACGAGAU	-2.56 ± 0.11	-1.81 ± 0.11
ACCUAGCAAUAUUACGGACU	-0.424 ± 0.059	0.508 ± 0.069
GCAUAGCAAUAUUACGCACG	-2 ± 0.17	-2.05 ± 0.22
GAACAGCAAUAUUACGGUUG	-2 ± 0.1	-0.692 ± 0.12
CCGGAGCAAUAUUACGAAUC	-4.01 ± 0.46	
CAUUAGCAAUAUUACGUCCA	-3.34 ± 0.32	-1.3 ± 0.28

Sequence	self-splicing fitness (ln) (30 °C)	self-splicing fitness (ln) (37 °C)
AUAUAGCAAUAUUACGUAAA	-2.17 ± 0.21	-1.56 ± 0.29
UACAAGCAAUAUUACGGGGG	-2.66 ± 0.14	-2.02 ± 0.13
ACCAAGCAAUAUUACGCCUG	-2.05 ± 0.18	-2.31 ± 0.25
AUCCAGCAAUAUUACGGGUA	-1.58 ± 0.1	-1.21 ± 0.089
UCUCAGCAAUAUUACGAUUG	-3.43 ± 0.17	-2.07 ± 0.17
GGAUAGCAAUAUUACGGAGU	-2.95 ± 0.34	-2.16 ± 0.42
AUCGAGCAAUAUUACGAUUC	-2.98 ± 0.34	
UGGCAGCAAUAUUACGCAGU	-4.13 ± 0.36	-2.57 ± 0.21
AUCCAGCAAUAUUACGUCGG	-2.71 ± 0.089	-2.43 ± 0.13
CACUAGCAAUAUUACGGCGU	-1.8 ± 0.12	-0.74 ± 0.11
AACGAGCAAUAUUACGAUAG	-3.04 ± 0.22	-2.49 ± 0.22
UAUCAGCAAUAUUACGCUGA		-2.31 ± 0.37
AAGGAGCAAUAUUACGGGCU	-2.94 ± 0.24	-2.53 ± 0.28
CUAAAGCAAUAUUACGUAAC	-2.86 ± 0.12	-1.62 ± 0.12
AUAUAGCAAUAUUACGGUUG	-3.18 ± 0.2	-2.24 ± 0.26
AGCAAGCAAUAUUACGCGCU		-2.2 ± 0.32
GUGAAGCAAUAUUACGGCAU	0.0954 ± 0.083	0.334 ± 0.089
AAAGAGCAAUAUUACGCACC	-2.03 ± 0.15	-0.855 ± 0.17
CGCCAGCAAUAUUACGGAGC	-3.06 ± 0.24	-2.82 ± 0.48
GAAAAGCAAUAUUACGUCUU	-0.419 ± 0.068	0.391 ± 0.086
AGAGAGCAAUAUUACGUCCC	-2.37 ± 0.33	-1.25 ± 0.37
UGACAGCAAUAUUACGCUAU	-3.7 ± 0.2	-1.09 ± 0.1
GGCGAGCAAUAUUACGUUCU	-1.02 ± 0.051	-0.335 ± 0.07
